Source: patent publication US20200270588A1, “GLUCOSYL TRANSFERASE POLYPEPTIDES AND METHODS OF USE” (Syngenta Participations AG, priority 2017, published 2020)

Assay: UDP luminescence plate assay of E. coli extracts, mutants of SEQ ID No: 1, 2 mM metribuzin
Type: biochemical, Zea mays
Experimental: Optionally plate assays are stopped with brief heating to 95 C before returning to ice and addition of UDP-Glo detection reagent followed by incubation at lab temperature. […] In addition a UDP standard curve is run alongside each set of plate tests.
Assays were carried out on extracts of E. coli BL21 DE3 expressing the various C-terminally his-tagged library variants of SEQ ID NO:1 at the amino acid positions listed in Table 11 as described in Example 2 except, in this case, with 2 mM metribuzin in place of herbicide V.
Thus the ratio of the metribuzin to DMSO signal as well as the increase in signal relative to the w/t bx9 is used to help distinguish those mutations most likely to offer the highest activity to metribuzin. A follow up assay monitored by, for example, LC MS is one method to distinguish these cases more quantitatively.

Molecule	factor of increased signal relative to the bx9 w/t control signal (first parentheses) (2 mM metribuzin)	ratio of activity with metribuzin relative to activity with DMSO (second parentheses) (2 mM metribuzin)	other results
bx9 w/t: wild type Zea mays bx9 glucosyl transferase, C-terminally his-tagged SEQ ID NO: 1 (protein, C-terminal His tag; Zea mays) MASSRTGAGAGGRVVVFPFPFQGHFNPVMRLARALHARGLAITVFHSGALDPADYPADYRFVPVTVEADPKLLASEDIAAIVTTLNASCDAPFRARLSALLAAEGRDSVRCVFTDVSWNAVLTASSDLGVPALGMMTASAASLRDYMAYRTLIDKGYLPVKEERKEDPVPELPPYLVKDLLRVDTSDLEEFAELLARTVTAARRASGLIFNTFPLIETDTLAEIHKALSVPVFAVAPLNKLVPTATASLHGVVQADRGCLQWLDTQQPGSVLYVSFGSMAAMDPHEFVELAWGLADSKRPFVWVVRPNLIRGFESGALPDGVEDEVRGRGIVVAWAPQEEVLAHPAVGGFLTHNGWNSTVEAISEGVPMVCCPRHGDQFGNMRYVCDVWKVGTELVGEQLERGQVKAAIDRLFGTKEGEEIKERMKEFKIAAAKGIGIGVDVDETASPRTDLTDLVDLIKSF	–	–	SIGNAL: metribuzin signal of mutant divided by metribuzin signal of w/t bx9 (2 mM metribuzin): 1.00; UDP-Glo luminescence signal (2 mM metribuzin, 5 ul diluted extract, 40 minutes, DMSO control ~2.3E6, H24A ~1.7E6): ~3.4 E6; luminescence signal with metribuzin (2 mM metribuzin, H24A null background 1.00E+05 not subtracted): 1.23E+05; SIGNAL: metribuzin signal of mutant divided by the signal of w/t bx9 (2 mM metribuzin, relative to bx9 w/t): 1.00; luminescence signal in the DMSO control (mutants of SEQ ID No: 1, DMSO in place of metribuzin (background UDP-glucose hydrolysis)): 2.76E+05; luminescence signal observed with 2 mM metribuzin (mutants of SEQ ID No: 1 in E. coli extracts, 2 mM metribuzin, UDP luminescence): 2.80E+05
M279F, H375Y: mutant combination of bx9 SEQ ID NO:1 (protein, Zea mays) MASSRTGAGAGGRVVVFPFPFQGHFNPVMRLARALHARGLAITVFHSGALDPADYPADYRFVPVTVEADPKLLASEDIAAIVTTLNASCDAPFRARLSALLAAEGRDSVRCVFTDVSWNAVLTASSDLGVPALGMMTASAASLRDYMAYRTLIDKGYLPVKEERKEDPVPELPPYLVKDLLRVDTSDLEEFAELLARTVTAARRASGLIFNTFPLIETDTLAEIHKALSVPVFAVAPLNKLVPTATASLHGVVQADRGCLQWLDTQQPGSVLYVSFGSFAAMDPHEFVELAWGLADSKRPFVWVVRPNLIRGFESGALPDGVEDEVRGRGIVVAWAPQEEVLAHPAVGGFLTHNGWNSTVEAISEGVPMVCCPRYGDQFGNMRYVCDVWKVGTELVGEQLERGQVKAAIDRLFGTKEGEEIKERMKEFKIAAAKGIGIGVDVDETASPRTDLTDLVDLIKSF	5.0	6.0	–
M279F, E339A, H375Y: mutant combination of bx9 SEQ ID NO:1 (protein, Zea mays) MASSRTGAGAGGRVVVFPFPFQGHFNPVMRLARALHARGLAITVFHSGALDPADYPADYRFVPVTVEADPKLLASEDIAAIVTTLNASCDAPFRARLSALLAAEGRDSVRCVFTDVSWNAVLTASSDLGVPALGMMTASAASLRDYMAYRTLIDKGYLPVKEERKEDPVPELPPYLVKDLLRVDTSDLEEFAELLARTVTAARRASGLIFNTFPLIETDTLAEIHKALSVPVFAVAPLNKLVPTATASLHGVVQADRGCLQWLDTQQPGSVLYVSFGSFAAMDPHEFVELAWGLADSKRPFVWVVRPNLIRGFESGALPDGVEDEVRGRGIVVAWAPQAEVLAHPAVGGFLTHNGWNSTVEAISEGVPMVCCPRYGDQFGNMRYVCDVWKVGTELVGEQLERGQVKAAIDRLFGTKEGEEIKERMKEFKIAAAKGIGIGVDVDETASPRTDLTDLVDLIKSF	7.5	7.0	–
M279W, H375Y: mutant combination of bx9 SEQ ID NO:1 (protein, Zea mays) MASSRTGAGAGGRVVVFPFPFQGHFNPVMRLARALHARGLAITVFHSGALDPADYPADYRFVPVTVEADPKLLASEDIAAIVTTLNASCDAPFRARLSALLAAEGRDSVRCVFTDVSWNAVLTASSDLGVPALGMMTASAASLRDYMAYRTLIDKGYLPVKEERKEDPVPELPPYLVKDLLRVDTSDLEEFAELLARTVTAARRASGLIFNTFPLIETDTLAEIHKALSVPVFAVAPLNKLVPTATASLHGVVQADRGCLQWLDTQQPGSVLYVSFGSWAAMDPHEFVELAWGLADSKRPFVWVVRPNLIRGFESGALPDGVEDEVRGRGIVVAWAPQEEVLAHPAVGGFLTHNGWNSTVEAISEGVPMVCCPRYGDQFGNMRYVCDVWKVGTELVGEQLERGQVKAAIDRLFGTKEGEEIKERMKEFKIAAAKGIGIGVDVDETASPRTDLTDLVDLIKSF	4.0	5.0	–
S117G, M279W, E339A: mutant combination of bx9 SEQ ID NO:1 (protein, Zea mays) MASSRTGAGAGGRVVVFPFPFQGHFNPVMRLARALHARGLAITVFHSGALDPADYPADYRFVPVTVEADPKLLASEDIAAIVTTLNASCDAPFRARLSALLAAEGRDSVRCVFTDVGWNAVLTASSDLGVPALGMMTASAASLRDYMAYRTLIDKGYLPVKEERKEDPVPELPPYLVKDLLRVDTSDLEEFAELLARTVTAARRASGLIFNTFPLIETDTLAEIHKALSVPVFAVAPLNKLVPTATASLHGVVQADRGCLQWLDTQQPGSVLYVSFGSWAAMDPHEFVELAWGLADSKRPFVWVVRPNLIRGFESGALPDGVEDEVRGRGIVVAWAPQAEVLAHPAVGGFLTHNGWNSTVEAISEGVPMVCCPRHGDQFGNMRYVCDVWKVGTELVGEQLERGQVKAAIDRLFGTKEGEEIKERMKEFKIAAAKGIGIGVDVDETASPRTDLTDLVDLIKSF	5.0	6.5	–
S117G, M279W, E339V: mutant combination of bx9 SEQ ID NO:1 (protein, Zea mays) MASSRTGAGAGGRVVVFPFPFQGHFNPVMRLARALHARGLAITVFHSGALDPADYPADYRFVPVTVEADPKLLASEDIAAIVTTLNASCDAPFRARLSALLAAEGRDSVRCVFTDVGWNAVLTASSDLGVPALGMMTASAASLRDYMAYRTLIDKGYLPVKEERKEDPVPELPPYLVKDLLRVDTSDLEEFAELLARTVTAARRASGLIFNTFPLIETDTLAEIHKALSVPVFAVAPLNKLVPTATASLHGVVQADRGCLQWLDTQQPGSVLYVSFGSWAAMDPHEFVELAWGLADSKRPFVWVVRPNLIRGFESGALPDGVEDEVRGRGIVVAWAPQVEVLAHPAVGGFLTHNGWNSTVEAISEGVPMVCCPRHGDQFGNMRYVCDVWKVGTELVGEQLERGQVKAAIDRLFGTKEGEEIKERMKEFKIAAAKGIGIGVDVDETASPRTDLTDLVDLIKSF	7.5	5.0	–
A432L: bx9 SEQ ID NO:1 mutant (protein, Zea mays) MASSRTGAGAGGRVVVFPFPFQGHFNPVMRLARALHARGLAITVFHSGALDPADYPADYRFVPVTVEADPKLLASEDIAAIVTTLNASCDAPFRARLSALLAAEGRDSVRCVFTDVSWNAVLTASSDLGVPALGMMTASAASLRDYMAYRTLIDKGYLPVKEERKEDPVPELPPYLVKDLLRVDTSDLEEFAELLARTVTAARRASGLIFNTFPLIETDTLAEIHKALSVPVFAVAPLNKLVPTATASLHGVVQADRGCLQWLDTQQPGSVLYVSFGSMAAMDPHEFVELAWGLADSKRPFVWVVRPNLIRGFESGALPDGVEDEVRGRGIVVAWAPQEEVLAHPAVGGFLTHNGWNSTVEAISEGVPMVCCPRHGDQFGNMRYVCDVWKVGTELVGEQLERGQVKAAIDRLFGTKEGEEIKERMKEFKIALAKGIGIGVDVDETASPRTDLTDLVDLIKSF	6	1.30	–
